Measurements taken from patent US20250236644A1, “De Novo Designed Stimulus-responsive Two-state Hinge Proteins” (University of Washington, priority 2024, published 2025).

What was measured:
TAMRA-cs074B = experiment: Fluorescence polarization (FP) titration and kinetics, hinge vs TAMRA-cs074B; assay type: binding; details: 1 nM peptide cs074B, varying hinge; FIG. 10
Description: (§1) All FP measurements were performed at 25° C. in 96-well plates (Corning 3686) using a Synergy Neo2™ plate reader and a 530/590 nm filter cube. The buffer for all FP measurements was 20 mM Tris-HCl, 100 mM NaCl, 0.05% v/v TWEEN20 at pH 8. Titrations were carried out in 96-well format, with 4 replicates per plate and 24 data points per titration (23 steps of two-fold serial dilution of hinges in the presence of TAMRA-labeled peptide at a constant concentration between 0.1 nM and 1 nM) with a final sample volume of 80 μl per well. Titration plates were incubated overnight at room temperature before measuring to ensure complete equilibration. The polarization signal S (as calculated by the Neo2™ software) was fitted to the equation
(§2) where fAB is the fraction of peptide that is bound, Atot is the absolute hinge concentration, Btot is the absolute peptide concentration, S0 is the baseline polarization of free peptide, and S1 is the change in polarization upon complex formation.
(§3) Fitting was performed using the scipy.optimize.curve_fit python function (53). Uncertainties for KD values are standard deviation errors calculated from the covariance matrix of the fits. In cases where the fitted KD was lower than the concentration of the labeled peptide Btot, we report the KD as KD<Btot.
(§4) For FP kinetics experiments a 2× peptide solution and 8 different 2× hinge solutions at different concentrations were prepared separately. 40 μl of each hinge solution were mixed with 40 μl peptide solution using a multichannel pipet and the measurement was started immediately after mixing. Polarization signals S at each concentration were fitted individually to the equation
(§5) where S0 is the amplitude, S1 is the polarization at equilibrium, kapp is the apparent rate constant, t is the time after start of the measurement, and t0 is the dead time between mixing and start of the measurement. For each hinge-peptide pair, the apparent rate constants for 8 different concentrations are fitted to the equation
(§6) where koff and kon are observed off- and on rates and Atot is the absolute hinge concentration.

TAMRA-cs201B = experiment: FP titration and kinetics, hinge vs TAMRA-cs201B; assay type: binding; details: for binding in FP titration: 1 nM peptide cs201B, varying hinge, FIG. 10
Description: as §1, §2, §3, §4, §5, §6

TAMRA-cs221B = experiment: FP titration and kinetics, hinge vs TAMRA-cs221B; assay type: binding; details: 1 nM peptide cs221B, varying hinge; FIG. 10
Description: as §1, §2, §3, §4, §5, §6

TAMRA-js007B = experiment: FP titration and kinetics, hinge vs TAMRA-js007B; assay type: binding
Description: as §1, §2
as §3, with “KD<Btot. […]” for “KD<Btot.”

[1] = system: original peptides fused to superfolder green fluorescent protein (sfGFP); experiment: SEC binding experiments with original peptides fused to sfGFP; details: FIG. 17C
Description: Individual hinge and sfGFP-fused peptides or 3hb were diluted in 20 mM Tris pH 8, 100 mM NaCl and mixed at approximately 1:1 concentrations. 0.5-1 mL of the resulting samples were injected onto a Superdex™ 200 Increase 10/300 GL columns and the absorbance at 230 nm was used as a readout for binding. For sfGFP-fused peptides, 473 nm was also used as readout. Mixtures were at a total concentration of 2. μM or higher.

cs221B = experiment: FRET titration and kinetics, labeled extended hinge vs peptide cs221B; assay type: binding; details: Effector cs221B; method FRET
Description: AlexaFluor™ 555 C2 maleimide (donor) and AlexaFluor™ 647 C2 maleimide (acceptor) were purchased from ThermoFisherScientific. Stock solutions at −5 mM were prepared by dissolving 1 mg of each dye in 200 μl DMSO. Hinge variants containing two cysteines were expressed and purified as described above with the modification that 0.5 mM TCEP was used during lysis, IMAC and SEC, and that the buffer for initial SEC contained 20 mM sodium phosphate (PH 7.0) instead of Tris-HCl. After SEC, 500 μl hinge at a concentration of 50 μM was incubated with 500 μM of a single dye for controls or 250 μM each of two dyes. […]
(§7) The buffer for all FRET measurements was 20 mM Tris-HCl, 100 mM NaCl, 0.05% v/v TWEEN®20 at pH 8. Fluorescence spectra were recorded at room temperature using a FluoroMax™ spectrometer in a 1 cm×1 cm cuvette at a sample volume of 3 ml. FRET titrations and kinetics measurements were performed at 25° C. in 96-well plates (Corning 3686) using a Synergy Neo2™ plate reader. […]
Titrations were carried out in 96-well format, with 4 replicates per plate and 24 data points per titration (23 steps of two-fold serial dilution of effector (peptide or 3hb) in the presence of double-labeled hinge at a constant concentration of 2 nM) with a final sample volume of 80 μl per well. […] The raw fluorescence signal (donor emission upon acceptor excitation) was fitted to the equation […]

3hb21 = experiment: FRET titration and kinetics, labeled extended hinge vs 3hb21; assay type: binding
Description: (§8) AlexaFluor™ 555 C2 maleimide (donor) and AlexaFluor™ 647 C2 maleimide (acceptor) were purchased from ThermoFisherScientific. Stock solutions at −5 mM were prepared by dissolving 1 mg of each dye in 200 μl DMSO. Hinge variants containing two cysteines were expressed and purified as described above with the modification that 0.5 mM TCEP was used during lysis, IMAC and SEC, and that the buffer for initial SEC contained 20 mM sodium phosphate (PH 7.0) instead of Tris-HCl. After SEC, 500 μl hinge at a concentration of 50 μM was incubated with 500 μM of a single dye for controls or 250 μM each of two dyes. After 2 h incubation at room temperature, samples were purified by SEC using a buffer containing 20 mM Tris-HCl and 100 mM NaCl at pH 8.
(§9) The buffer for all FRET measurements was 20 mM Tris-HCl, 100 mM NaCl, 0.05% v/v TWEEN®20 at pH 8. Fluorescence spectra were recorded at room temperature using a FluoroMax™ spectrometer in a 1 cm×1 cm cuvette at a sample volume of 3 ml. FRET titrations and kinetics measurements were performed at 25° C. in 96-well plates (Corning 3686) using a Synergy Neo2™ plate reader. Excitation wavelength was 520 nm and emission wavelength was 665 nm (except for donor-donor controls for which emission wavelength was 555 nm, see FIG. 13B right column).
(§10) Titrations were carried out in 96-well format, with 4 replicates per plate and 24 data points per titration (23 steps of two-fold serial dilution of effector (peptide or 3hb) in the presence of double-labeled hinge at a constant concentration of 2 nM) with a final sample volume of 80 μl per well. […] The raw fluorescence signal (donor emission upon acceptor excitation) was fitted to the equation
(§11) Fitting was performed using the scipy.optimize.curve_fit python function (53). Uncertainties for KD values are standard deviation errors calculated from the covariance matrix of the fits. […]
(§12) For FRET kinetics experiments a 2× hinge solution and 8 different 2× effector solutions at different concentrations were prepared separately. […] Fluorescence signals S at each concentration were fitted individually to the equation […]

off-target peptides = experiment: Pairwise FRET titrations of labeled hinges with off-target peptides; assay type: binding; details: 2 nM labeled hinge; off-target peptides at μM concentrations; flat lines
Description: A critical feature of two-state switches in biology and technology is the coupling between the state control mechanism and the populations of the two states. To quantitatively investigate the thermodynamics and kinetics of the effector induced switching between the two states of our designed hinges, we used Forster resonance energy transfer (FRET). […]
as §7, §10

cs201B = experiment: FRET titration and kinetics, labeled extended hinge vs peptide cs201B; assay type: binding
Description: as §8, §9, §10, §11, §12

Chain of 3hb21 (as listed by the source): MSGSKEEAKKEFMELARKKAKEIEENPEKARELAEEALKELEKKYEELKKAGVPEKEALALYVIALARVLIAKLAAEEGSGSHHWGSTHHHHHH
Chain of TAMRA-cs201B (as listed by the source): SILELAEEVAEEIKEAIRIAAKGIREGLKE
Chain of TAMRA-cs074B (as listed by the source): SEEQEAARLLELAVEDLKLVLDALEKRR
Chain of TAMRA-cs221B (as listed by the source): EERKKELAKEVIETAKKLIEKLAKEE
Chain of TAMRA-js007B (as listed by the source): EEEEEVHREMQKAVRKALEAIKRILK

B1: csw13: cs201-derived hinge redesigned to bind peptide cs221B, SEQ ID NO:17 (protein)
chain: MSGNEEVKKLVEEAKKYLKEAEEYIKKAKKTGNEELLEKALKLLEKALELVKKAIELDPNNKEAIEQAVEIARALNEVAELLIEEAKKTGNEELLEKALEALEAANEALKLAIENNENDKELLAEIAVELAEVGVLLAEVLIEEAKKTGDPELLKLALEVLEAAVEALELALKLDPNNEEAVELAEEAAKLLEEVAKELKEEAKKTGDPELEKLAKEAEELAKRAKELAERQRGSGSHHWGSTHHHHHH
- binding in FP titration (TAMRA-cs074B): not binding
- binding in FP titration (TAMRA-cs201B): not binding
- binding in FP titration (TAMRA-cs221B): specifically binds
- binding in FP titration (TAMRA-js007B; 1 nM peptide js007B, varying hinge, FIG. 10): not binding

B2: cs230: designed hinge protein, SEQ ID NO:12 (protein)
chain: MSGTKEEKERIERIEKEVRSPDPENILEAVRKALELFRENPSEEAKELLKRAIEAALRSEDERAILEALRAALEAYRQGAGDREGLLEAIRVAIRRAAESEDERAILEAVRAARILLEAERTEEAKELLRVAIERAKKSPDPEAQREAKRAEEELRKEDGSGSHHWGSTHHHHHH
- SEC binding experiment with sfGFP-fused original peptide [1]: higher-order peaks

B3: cs221F: extended hinge cs221 for FRET labeling, SEQ ID NO:31 (protein)
chain: MSGEMVEEIEKLAEELAKKTKDCEVKKLAKKAAELAKKSTDEMKKEIVKDALELALRTKDEEVIRLALKAAVLAAESDDEEVKEVVKKALEAALKSKDEEVIRLLLLAAVLAAAAARSGSPEEKLEIAKKALELAMKSKDEEVIRLALLAAVLAARSDDEEVLKIVKKALELAMESKDVEVIRLALEAAVLAARSTDPEKKKCVYEALEKAMESKDEEEIKKELKAAVEKARSTEGSGSHHWGSTHHHHHH
- kon (cs221B): 2600 M⁻¹ s⁻¹
- kon (3hb21; Effector 3hb21, method FRET, 5 nM hinge): 13000 M⁻¹ s⁻¹
- binding compared with the original peptide cs221B (3hb21; FRET): significantly tighter
- KD, times stronger than the KD of the original peptide cs221B (3hb21; FRET titration, 2 nM hinge): at least 20 times
- off-target FRET titration outcome (off-target peptides): no conformational change

B4: cs201: designed hinge protein, SEQ ID NO:7 (protein)
chain: MSGDEEVQEAVERAEELREEAEELIKKARKTGDPELLRKALEALKEAVRAVREAIKRNPDNEEAIKTALRLARELRKVAKELIERARKTGDAELLKKALEAARVAVEAVRLAAEYNKENAEKMAELLVELAELAREVADVLIELAEKTGDPELLKKALEVLEEAVEAVRLAIEYDPDHEEAVETAKRLAEELRKVAELLEERAKETGDPELQELAKRAKEVADRARELAKKSNGSGSHHWGSTHHHHHH
- kon (TAMRA-cs201B; Effector TAMRA-cs201B, method FP): 6700 M⁻¹ s⁻¹

B5: csw20: cs201-derived hinge redesigned to bind peptide cs074B, SEQ ID NO:18 (protein)
chain: MSGMEEVKELVEKAEELAKEAEELIKKAKKTGNPELLKEALRKLKEAVELAKEAVELDPEHEEAIELLARLAEKLLEVAKLLIELAKKTGNPELLKEALRALKEAREALRLAAEHAPEDAKLLARLAARLAELALLIAKILIELAKKTGNPELLLKALKVLTLAVEAVEAALEADPRLKEAVRVAKELAEVLKELAKLAKELAKKTGNEELKEAAKEAEEVAKRAEELAREAEGSGSHHWGSTHHHHHH
- binding in FP titration (TAMRA-cs074B): most strongly
- binding in FP titration (TAMRA-cs201B): still binds
- binding in FP titration (TAMRA-cs221B): weaker than the new target

B6: js007: designed hinge protein, SEQ ID NO:11 (protein)
chain: MSGSEEVNERVKQLAEKAKEATDKEEVIEIVKELAELAKQSTDPNLVAEVVRALTEVAKTSTDTELIQEIVKVLLELARRLTDPQLLLEVLKSIAELLKELAEKTGNETAKLAALVAQIAAEVVEMALRAEKTHPGSEIVKLAVELVQKVAEIVLIAAQLMLDKPNSDEVRKVLKEVEKVAREALKALREAKRHPDSQKARDEIKEASQKAEEVKERIERAQEGSGSHHWGSTHHHHHH
- kon (TAMRA-js007B; Effector TAMRA-js007B, method FP): 78000 M⁻¹ s⁻¹

B7: cs201F: extended hinge cs201 for FRET labeling, SEQ ID NO:30 (protein)
chain: MSGDEEVQEAVERAEELREEAEELIKKARKTGDPELLRKALEALEEAVRAVEEAICRNPDNDEAVETAVRLARELKKVAEELQERAKKTGDPELLKLALRALEVAVRAVELAIKSNPDNDEAVETAVRLARELKKVAEELQERAKKTGDPELLKLALRALEVAVRAVELAIKRNPDNEEAIKTALRLARELRKVAKELIERARKTGDAELLKKALEAARVAVEAVRLAAEYNKENAEKMAELLVELAELAREVADVLIELAEKTGDPELLKKALEVLEEAVEAVRLAIEYDPDHDEAVETAVRLARELKKVAEELQERAKKTGDPELLKLALRALEVAVRAVELAIKSNPDNEEAVETAKRLAEELRKVAELLEERAKETGDPCLQELAKRAKEVADRARELAKKSNPNNGSGSHHWGSTHHHHHH
- reversibility of hinge conformational change (cs201B; 30 nM FRET-labeled hinge, peptide added, then excess unlabeled hinge cs201): fully reversible
- kon (cs201B; Effector cs201B, method FRET): 4500 M⁻¹ s⁻¹
- off-target FRET titration outcome (off-target peptides): no conformational change
